What follows are sequences tested on Escherichia coli TOP10 (assay: shrunken log2 fold change of peptide-encoding DNA abundance (4.5 h post-induction vs induction); higher = less antimicrobial activity (less host growth inhibition)). Conditions: time post-induction: 4.5 h; library: site-saturation at positions 5, 18, 19, 20.
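Further: peptides expressed intracellularly from a pBAD plasmid library in pooled LB shake-flask culture, induced with 0.3% L-arabinose, DNA abundance read by NGS, three biological replicates, DESeq2 with apeglm shrinkage.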

Sequence | shrunken log2 fold change
RRIRCRPPRLPRPRPRPIKHPRP | -0.389
RRIRCRPPRLPRPRPRPTNKPRP | -0.0578
RRIRWRPPRLPRPRPRPDNLPRP | -0.188
RRIRIRPPRLPRPRPRPGHCPRP | -0.247
RRIRFRPPRLPRPRPRPYINPRP | -0.647
RRIRQRPPRLPRPRPRPHFHPRP | -0.396
RRIRQRPPRLPRPRPRPQNWPRP | 0.0213
RRIRYRPPRLPRPRPRPSVSPRP | -0.747
RRIRTRPPRLPRPRPRPWQMPRP | -0.0135
RRIRMRPPRLPRPRPRPFEPPRP | 0.174
RRIRERPPRLPRPRPRPDAMPRP | -0.0916
RRIRLRPPRLPRPRPRPVQYPRP | -0.0382
RRIRHRPPRLPRPRPRPWMAPRP | -0.347
RRIRPRPPRLPRPRPRPMAPPRP | -0.0483
RRIRPRPPRLPRPRPRPLTIPRP | -0.275
RRIRKRPPRLPRPRPRPMMWPRP | 0.373
RRIRCRPPRLPRPRPRPFSPPRP | -0.181
RRIRPRPPRLPRPRPRPSYKPRP | -0.564
RRIRSRPPRLPRPRPRPTTEPRP | 0.014
RRIRSRPPRLPRPRPRPYYMPRP | -0.622
RRIRYRPPRLPRPRPRPQRSPRP | -0.129
RRIRTRPPRLPRPRPRPPKKPRP | 0.0946
RRIRPRPPRLPRPRPRPGCVPRP | 0.447
RRIRNRPPRLPRPRPRPVQCPRP | -0.0226
RRIRNRPPRLPRPRPRPIFNPRP | -0.302

Sequence | shrunken log2 fold change
RRIRMRPPRLPRPRPRPYSMPRP | -0.245
RRIRTRPPRLPRPRPRPIIRPRP | -0.0034
RRIRRRPPRLPRPRPRPGDEPRP | -0.0622
RRIRIRPPRLPRPRPRPNWIPRP | -0.565
RRIRWRPPRLPRPRPRPFPQPRP | 0.0229
RRIRHRPPRLPRPRPRPRWVPRP | 0.31
RRIRKRPPRLPRPRPRPALPPRP | 0.936
RRIRDRPPRLPRPRPRPDDAPRP | 0.365
RRIRERPPRLPRPRPRPTAWPRP | 0.378
RRIRGRPPRLPRPRPRPSWSPRP | 0.425
RRIRHRPPRLPRPRPRPHLGPRP | 0.0478
RRIRTRPPRLPRPRPRPDTFPRP | 0.0276
RRIRLRPPRLPRPRPRPYRYPRP | -0.254
RRIRVRPPRLPRPRPRPFNNPRP | -0.147
RRIRHRPPRLPRPRPRPAVCPRP | 0.0561
RRIRDRPPRLPRPRPRPHWIPRP | -0.693
RRIRNRPPRLPRPRPRPFGYPRP | -0.377
RRIRERPPRLPRPRPRPCCWPRP | 0.185
RRIRIRPPRLPRPRPRPQSSPRP | 0.00983
RRIRNRPPRLPRPRPRPQYFPRP | -0.00973
RRIRFRPPRLPRPRPRPYQFPRP | 0.0166
RRIRWRPPRLPRPRPRPIMGPRP | 0.0656
RRIRRRPPRLPRPRPRPSGWPRP | 0.333
RRIRKRPPRLPRPRPRPLPCPRP | 0.213
RRIRWRPPRLPRPRPRPRIHPRP | 0.178

Sequence | shrunken log2 fold change
RRIRARPPRLPRPRPRPWEEPRP | 0.271
RRIRDRPPRLPRPRPRPPGVPRP | 0.127
RRIRDRPPRLPRPRPRPFRYPRP | 0.0402
RRIRLRPPRLPRPRPRPPLCPRP | 0.162
RRIRVRPPRLPRPRPRPIKMPRP | -0.697
RRIRGRPPRLPRPRPRPWMNPRP | 0.106
RRIRRRPPRLPRPRPRPEDRPRP | -0.154
RRIRWRPPRLPRPRPRPVAIPRP | -0.0829
RRIRERPPRLPRPRPRPVKQPRP | -0.0109
RRIRCRPPRLPRPRPRPILYPRP | -0.716
RRIRHRPPRLPRPRPRPFCQPRP | -0.243
RRIRCRPPRLPRPRPRPHYAPRP | -0.299
RRIRWRPPRLPRPRPRPPDFPRP | -0.087
RRIRKRPPRLPRPRPRPPMGPRP | 0.185
RRIRDRPPRLPRPRPRPQRYPRP | -0.0811
RRIRTRPPRLPRPRPRPGHVPRP | -0.144
RRIRWRPPRLPRPRPRPISFPRP | 0.00901
RRIRERPPRLPRPRPRPNTNPRP | -0.0492
RRIRHRPPRLPRPRPRPFPQPRP | 3.88
RRIRIRPPRLPRPRPRPLYEPRP | -0.649
RRIRRRPPRLPRPRPRPNRCPRP | 0.118
RRIRKRPPRLPRPRPRPTLLPRP | 0.083
RRIRKRPPRLPRPRPRPQFGPRP | 0.0962
RRIRVRPPRLPRPRPRPWAPPRP | 0.0631
RRIRWRPPRLPRPRPRPNGQPRP | 0.158

Reference: the supplement of paper PMC9112550, “Optimization of the antimicrobial peptide Bac7 by deep mutational scanning” (BMC Biology, 2022)
